Molecular target: CD4-IgG2 (UniProt P01730)
Test: BLI

Substance: HIV-1 clade B YU2 gp120 extended core (Coree) (domain or fragment)
- Kd: 0.12 nM
- koff: 5.9e-05 s⁻¹
- kon: 474000 M⁻¹ s⁻¹

Substance: HIV-1 clade B YU2 gp120 glycoprotein, ΔV3 (from UniProt P35961 32-498) (natural protein)
- Kd: 0.91 nM
- koff: 0.00015 s⁻¹
- kon: 160000 M⁻¹ s⁻¹

Substance: HIV-1 clade B YU2 gp120 glycoprotein, ΔV1/V2 (from UniProt P35961 32-498) (natural protein)
- Kd: 0.34 nM
- koff: 5.4e-05 s⁻¹
- kon: 178000 M⁻¹ s⁻¹
